Assay results taken from paper PMC3621618, “Comparative measurement of CNP and NT-proCNP in human blood samples: a methodological evaluation” (Journal of Negative Results in Biomedicine, 2013).

B1: ProCNP: pro-peptide of CNP, reported stable per the manufacturer's protocol (peptide, UniProt P23582 24-126, looked up)
pro-form: KPGAPPKVPRTPPAEELAEPQAAGGGQKKGDKAPGGGGANLKGDRSRLLRDLRVDTKSRAAWARLLQEHPNARKYKGANKKGLSKGCFGLKLDRIGSMSGLGC
modifications: pro-form

Key:
[1] = human serum and full blood (EDTA), room temperature, 30 min and 2 hours; CNP-22 EIA; n = 12
Experimental: We studied 12 male volunteers (mean age 29 ± 2 years, normal weight, no drug therapy, no history of cardiovascular or other diseases, 3 smokers). From all investigated subjects informed consent was obtained. Triplets of fasting blood samples were taken from all volunteers at 8 o’clock in the morning. Blood samples were collected using the 7.5 ml S-Monovette® collection system (Sarstedt, Nümbrecht, Germany) containing either clotting activator (Kaolin) for serum samples, sodium-citrate for plasma samples or Potassium–EDTA for full blood samples. All samples for baseline analyses were immediately centrifuged at 2,000 × g for 10 min at 4°C and supernatant was stored at −70°C until analysis. For mid-term analyses (30 minutes or 2 hours), plasma samples were centrifuged at 2,000 × g for 10 min at room temperature. Supernatant was removed and stored at room temperature for 30 min or 2 hours. Following blood clotting, serum samples were processed identically to plasma samples. Supernatant was saved and also stored at room temperature for 30 min or 2 hours. Full blood samples were stored at room temperature without centrifugation. […] The concentration of CNP was measured using the CNP-22 EIA Kit (#EK-012-03, Phoenix Pharmaceuticals, Karlsruhe, Germany) according to the manufacturer’s protocol. […] Data were analyzed using MedCalc® for Windows, Version 10.0.1.0 (MedCalc Software, Mariakerke, Belgium).

[2] = unknown storage conditions of blood samples; ref manufacturer's protocol; cited from earlier work
Experimental: Consequently, the stability of the CNP peptide is most likely not affected by any delay in sample processing for at least two hours. ProCNP has already been reported (manufacturer’s protocol, unknown storage conditions of blood samples) to be stable for at least 2.5 hours. Accordingly, our experiments confirmed the stability of NT-proCNP even at room temperature.

| Molecule | stability of CNP in serum and full blood samples [1] | time for which ProCNP is stable [2] |
| --- | --- | --- |
| C-type natriuretic peptide [CNP] | stable in serum and in full blood samples for at least two hours at room temperature |  |
| B1 |  | at least 2.5 hours |
